Consider six molecules from patent US6979572B1, “Compositions and methods for inhibiting inward-rectifier potassium channels” (Trustees of the University of Pennsylvania, priority 1998, dated 2005).

Like-named read-outs stand apart in the source and are kept apart here. Peptide text beside a SMILES is read from it.

One assay has as its target T1, GIRK1/4 channel (Rattus norvegicus, UniProt P48548+P63251).
T1 construct: expressed in transfected cells; host or cells: Xenopus laevis oocytes (cRNA injection)
T1 sequence (P63251 1-501): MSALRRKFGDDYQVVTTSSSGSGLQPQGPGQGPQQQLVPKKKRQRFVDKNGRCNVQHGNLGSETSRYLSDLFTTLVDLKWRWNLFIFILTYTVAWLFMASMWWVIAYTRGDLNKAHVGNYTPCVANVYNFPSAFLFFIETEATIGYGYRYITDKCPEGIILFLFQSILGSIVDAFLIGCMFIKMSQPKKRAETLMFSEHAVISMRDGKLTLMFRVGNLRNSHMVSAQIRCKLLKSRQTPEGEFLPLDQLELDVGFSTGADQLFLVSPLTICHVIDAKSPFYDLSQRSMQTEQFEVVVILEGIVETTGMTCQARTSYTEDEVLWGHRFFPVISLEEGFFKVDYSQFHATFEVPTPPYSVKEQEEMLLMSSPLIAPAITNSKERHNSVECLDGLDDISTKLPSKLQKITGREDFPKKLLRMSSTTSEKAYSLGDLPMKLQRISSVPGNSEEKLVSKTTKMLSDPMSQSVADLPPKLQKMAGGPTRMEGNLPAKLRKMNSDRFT
T1 sequence (P48548 1-419): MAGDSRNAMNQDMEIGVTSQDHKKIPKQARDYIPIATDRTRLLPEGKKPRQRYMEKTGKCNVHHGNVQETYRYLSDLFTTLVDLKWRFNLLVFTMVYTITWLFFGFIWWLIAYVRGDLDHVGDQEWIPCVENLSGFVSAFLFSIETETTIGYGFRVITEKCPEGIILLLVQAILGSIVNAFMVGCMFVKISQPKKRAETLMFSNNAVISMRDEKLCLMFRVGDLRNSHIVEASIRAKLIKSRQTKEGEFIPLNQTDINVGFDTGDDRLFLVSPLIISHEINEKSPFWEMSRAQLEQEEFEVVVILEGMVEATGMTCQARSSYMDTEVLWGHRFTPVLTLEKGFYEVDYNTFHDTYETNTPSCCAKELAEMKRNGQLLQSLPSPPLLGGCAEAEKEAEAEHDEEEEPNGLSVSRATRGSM
Nature of the assay: cell-based. As to conditions: for inhibition at 1 µM: read-out: inhibition of the GIRK1/4 channel.

Assay [1] addresses T2, GIRK1/4 inward-rectifier K+ channel, P63251.
T2 chain 1: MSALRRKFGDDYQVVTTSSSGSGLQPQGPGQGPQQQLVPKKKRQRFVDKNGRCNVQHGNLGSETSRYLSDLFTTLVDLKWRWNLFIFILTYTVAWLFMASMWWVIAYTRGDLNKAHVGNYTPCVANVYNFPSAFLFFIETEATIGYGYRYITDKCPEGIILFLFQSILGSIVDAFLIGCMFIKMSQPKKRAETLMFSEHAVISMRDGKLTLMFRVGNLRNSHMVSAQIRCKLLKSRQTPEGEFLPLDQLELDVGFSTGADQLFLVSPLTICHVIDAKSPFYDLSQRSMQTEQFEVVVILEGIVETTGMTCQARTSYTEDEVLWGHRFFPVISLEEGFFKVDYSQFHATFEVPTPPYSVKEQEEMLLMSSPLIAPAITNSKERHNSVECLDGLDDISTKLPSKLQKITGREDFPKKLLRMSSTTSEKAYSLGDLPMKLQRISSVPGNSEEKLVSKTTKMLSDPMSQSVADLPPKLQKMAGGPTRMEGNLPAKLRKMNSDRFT
T2 chain 2: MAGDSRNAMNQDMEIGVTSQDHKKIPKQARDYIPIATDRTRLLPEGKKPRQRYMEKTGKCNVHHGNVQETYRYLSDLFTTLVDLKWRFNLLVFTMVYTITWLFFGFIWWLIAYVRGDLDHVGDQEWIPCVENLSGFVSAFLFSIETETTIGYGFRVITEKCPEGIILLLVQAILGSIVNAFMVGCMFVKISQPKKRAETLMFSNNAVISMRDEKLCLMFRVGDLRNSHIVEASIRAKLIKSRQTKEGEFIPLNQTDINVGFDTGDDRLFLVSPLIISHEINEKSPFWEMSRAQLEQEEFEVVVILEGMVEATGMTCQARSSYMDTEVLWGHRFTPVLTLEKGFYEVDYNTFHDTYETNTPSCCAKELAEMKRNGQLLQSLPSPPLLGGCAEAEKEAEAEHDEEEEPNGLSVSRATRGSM

The target of assay [2] is T3, ROMK1 inward-rectifier K+ channel (wild-type), P35560.
T3 chain: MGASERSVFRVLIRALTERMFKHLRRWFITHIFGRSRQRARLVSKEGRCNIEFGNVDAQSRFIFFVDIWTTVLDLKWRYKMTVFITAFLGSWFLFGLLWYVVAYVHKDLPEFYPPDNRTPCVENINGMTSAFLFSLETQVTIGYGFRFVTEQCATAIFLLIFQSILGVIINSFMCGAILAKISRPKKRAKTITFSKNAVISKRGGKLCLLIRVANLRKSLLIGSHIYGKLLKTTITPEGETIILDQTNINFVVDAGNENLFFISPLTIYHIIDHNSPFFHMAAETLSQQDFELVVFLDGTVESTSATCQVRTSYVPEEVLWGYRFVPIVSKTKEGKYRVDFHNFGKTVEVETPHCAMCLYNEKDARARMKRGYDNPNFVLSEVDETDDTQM

For assay [3], the target named is T4, ROMK1 F146A channel, P35560.
T4 chain: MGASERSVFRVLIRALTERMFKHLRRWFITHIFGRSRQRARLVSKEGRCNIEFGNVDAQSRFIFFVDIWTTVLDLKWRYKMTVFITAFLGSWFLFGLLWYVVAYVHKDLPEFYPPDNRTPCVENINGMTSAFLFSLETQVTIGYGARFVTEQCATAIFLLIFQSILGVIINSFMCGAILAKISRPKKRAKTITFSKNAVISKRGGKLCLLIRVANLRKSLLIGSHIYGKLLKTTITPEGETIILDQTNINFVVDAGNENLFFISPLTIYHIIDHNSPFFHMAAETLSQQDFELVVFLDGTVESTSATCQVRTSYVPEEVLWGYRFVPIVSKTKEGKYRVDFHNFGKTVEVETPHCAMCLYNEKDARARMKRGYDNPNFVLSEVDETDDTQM

The target in assay [4] is T5, ROMK1 G127S channel, P35560.
T5 chain: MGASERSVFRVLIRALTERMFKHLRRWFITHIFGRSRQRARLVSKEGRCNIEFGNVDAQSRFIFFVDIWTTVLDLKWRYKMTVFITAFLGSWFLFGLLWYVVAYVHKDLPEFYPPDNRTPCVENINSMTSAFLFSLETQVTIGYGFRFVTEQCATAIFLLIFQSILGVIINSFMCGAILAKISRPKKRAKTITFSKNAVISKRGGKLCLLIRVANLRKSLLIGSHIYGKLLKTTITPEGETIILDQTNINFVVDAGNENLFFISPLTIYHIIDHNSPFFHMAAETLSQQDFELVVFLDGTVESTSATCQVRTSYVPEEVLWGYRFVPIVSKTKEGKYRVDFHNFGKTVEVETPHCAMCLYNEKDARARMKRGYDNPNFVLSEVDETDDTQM

Assay [5] has as its target T6, ROMK1 N124A channel, P35560.
T6 chain: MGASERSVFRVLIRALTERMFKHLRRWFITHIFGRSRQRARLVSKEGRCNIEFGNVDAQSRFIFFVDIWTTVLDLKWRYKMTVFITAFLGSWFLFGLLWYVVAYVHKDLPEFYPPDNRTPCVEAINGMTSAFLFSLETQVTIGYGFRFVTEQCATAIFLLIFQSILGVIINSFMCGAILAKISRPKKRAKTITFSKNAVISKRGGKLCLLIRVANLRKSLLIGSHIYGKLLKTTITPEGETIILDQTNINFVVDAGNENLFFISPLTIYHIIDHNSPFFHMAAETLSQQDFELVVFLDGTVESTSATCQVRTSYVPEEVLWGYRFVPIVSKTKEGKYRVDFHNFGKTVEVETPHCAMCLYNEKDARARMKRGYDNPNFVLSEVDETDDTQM

Assay [6] has as its target T7, ROMK1 N171D channel, P35560.
T7 chain: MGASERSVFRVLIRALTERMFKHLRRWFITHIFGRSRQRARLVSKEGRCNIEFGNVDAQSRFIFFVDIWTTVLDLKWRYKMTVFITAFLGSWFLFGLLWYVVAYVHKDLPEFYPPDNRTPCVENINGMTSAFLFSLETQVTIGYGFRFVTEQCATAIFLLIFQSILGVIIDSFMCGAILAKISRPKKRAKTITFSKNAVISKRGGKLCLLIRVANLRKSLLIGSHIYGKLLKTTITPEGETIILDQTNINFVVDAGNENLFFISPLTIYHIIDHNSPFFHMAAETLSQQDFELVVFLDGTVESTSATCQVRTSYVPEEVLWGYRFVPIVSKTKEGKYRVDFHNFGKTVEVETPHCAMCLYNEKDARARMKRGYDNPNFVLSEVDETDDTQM

The target of assay [7] is T8, ROMK1 I142L channel, P35560.
T8 chain: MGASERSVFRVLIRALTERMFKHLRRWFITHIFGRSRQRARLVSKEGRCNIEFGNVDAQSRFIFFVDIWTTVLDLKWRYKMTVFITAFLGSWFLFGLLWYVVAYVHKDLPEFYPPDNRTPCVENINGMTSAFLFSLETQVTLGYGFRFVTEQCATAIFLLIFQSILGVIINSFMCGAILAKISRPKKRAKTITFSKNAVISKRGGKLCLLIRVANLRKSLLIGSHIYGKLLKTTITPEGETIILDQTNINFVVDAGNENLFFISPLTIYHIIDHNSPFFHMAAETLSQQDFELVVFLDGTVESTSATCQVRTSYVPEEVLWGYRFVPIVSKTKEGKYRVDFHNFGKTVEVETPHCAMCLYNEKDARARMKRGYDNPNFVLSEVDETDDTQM

For assay [8], the target named is T2, GIRK1/4 inward-rectifier K+ channel, …. Nature of the assay: cell-based or functional assay.
Assay [9] has the same target.
Assay [10] shares this target.

With `CC[C@H](C)[C@H](N)C(=O)N[C@@H](CCCCN)C(=O)N[C@H]1CSSC[C@@H]2NC(=O)[C@H]([C@@H](C)CC)NC(=O)[C@H](Cc3c[nH]cn3)NC(=O)[C@@H]3CCCN3C(=O)[C@H](CCCCN)NC(=O)[C@H]([C@@H](C)CC)NC(=O)[C@H](C(C)C)NC(=O)[C@H](Cc3c[nH]cn3)NC(=O)[C@H](CCCNC(=N)N)NC(=O)[C@H](CCCCN)NC(=O)[C@H](CSSC[C@@H](C(=O)NCC(=O)N[C@@H](CCCCN)C(=O)N[C@@H](CC(N)=O)C(N)=O)NC(=O)[C@H]([C@@H](C)CC)NC(=O)[C@H](CCCCN)NC(=O)[C@H](CCCNC(=N)N)NC2=O)NC(=O)[C@H](CC(N)=O)NC1=O` [MCDP, mast cell degranulating peptide] (HELM PEPTIDE1{I.K.C.N.C.K.R.H.V.I.K.P.H.I.C.R.K.I.C.G.K.N.[am]}$PEPTIDE1,PEPTIDE1,3:R3-15:R3|PEPTIDE1,PEPTIDE1,5:R3-19:R3$$$V2.0; N-terminus and C-terminus assumed; bridges inferred), on GIRK1/4 channel, the “effect on / sensitivity of the GIRK1/4 channel, in words” value is “do not inhibit the activity” and the inhibition at 1 µM was 20 to 30%.
Take `CC(C)C[C@@H]1NC(=O)[C@H](C)NC(=O)[C@H]([C@@H](C)O)NC(=O)[C@H](CCC(=O)O)NC(=O)[C@@H]2CCCN2C(=O)[C@H](C)NC(=O)[C@H](CCCCN)NC(=O)[C@@H]2CSSC[C@@H](C(=O)N[C@@H](CCC(N)=O)C(=O)N[C@@H](CCC(N)=O)C(=O)N[C@@H](Cc3cnc[nH]3)C(N)=O)NC(=O)[C@H](CCCNC(=N)N)NC(=O)[C@H](CCCNC(=N)N)NC(=O)[C@H](C)NC(=O)[C@H](CSSC[C@H](N)C(=O)N[C@@H](CC(N)=O)C(=O)N2)NC1=O` [apamin]: at GIRK1/4 channel (GIRK1/4, read-out: affinity of the channel (Kd)), the dissociation constant (Kd) was greater than 1000 nM. Besides, the inhibition at 1 µM on GIRK1/4 channel (at 1 μM concentration) lay in the range of 20 to 30%.
For ALCNCNRIIIPHMCWKKCGKK (modifications not checked) [synthetic tertiapin], the dissociation constant (Kd) stood at 8.6 nM in [1]; 2 nM in [2]; 65.2 nM in assay [3]; 2.7 nM in assay [4]; 13.9 nM in [5]; 1.5 nM in assay [6]. The Kd in assay [9] came out at 8 nM. The fold lower affinity than the wild-type ROMK1 channel in assay [7] stood at 8 fold. In [8], the inhibition of the GIRK1/4 current at 10 nM was 50%.
Molecule ALCNCNRIIIPHMCWKKCGKK (modifications not checked) [native tertiapin] registered a dissociation constant Kd in [1] of 8.2 nM.
In [10], CNCKAPETALCARRCQQH (modifications not checked) [apamin, P01500 28-45] registered an equilibrium dissociation constant (Kd) greater than 1000 nM. In assay [9], this molecule showed a fold lower affinity than for tertiapin greater than 100 fold.
As for IKCNCKRHVIKPHICRKICGKN (modifications not checked) [mast cell degranulating peptide, P01499 28-49], in assay [10], the dissociation constant Kd was greater than 1000 nM. The same molecule yielded a fold lower affinity than for tertiapin in [9] greater than 100 fold.
